In patent US20030113292A1, “Methods of treating viral diseases with il-18 and il-18 combinations” (priority 2000, published 2003):

Assays:
Chimpanzee PBMCs = assay: Mediator induction in chimpanzee PBMCs (ELISA of supernatants); format: cell-based
Protocol: Chimpanzee or human PBMCs were isolated and treated with either control media, human IL-18 at 100 ng/ml, or IL-18 (100 ng/ml) in combination with IL-2 at 3 ng/ml. Supernatants were frozen following incubation for 24, 48, 72, or 96 hours. Mediator levels were analyzed by ELISA. […] Moreover there is synergy between IL-2 and IL-18 at inducing GM-CSF, IL-8, Neopterin, and IFN-gamma (FIGS. 9 and 10). These observations were confirmed in multiple chimp and human donors.
The highest protein levels were detected in samples obtained 96 hours post-treatment, with the exception of IFN-gamma that reached a maximum level at 24 hours.
In this study, treatment with IL-2 alone was used as control.

TNF-α, IFN-γ, and GM-CSF = assay: Cytokine protein induction in uninfected mice (ELISA of sera and spleen homogenates); format: in vivo, Female Balb/C mice
Hepatitis B Virus (HBV) = assay: HBV transgenic mice, liver HBV DNA by Southern blot; format: in vivo; details: Day 3
Protocol: HBV transgenic mice (Guidotti et. al, 1995. J. Virol 69:6158-6169) were treated with three daily subcutaneous injections (Days 0, 1 and 2) of 4 different doses (100, 10, 1 and 0.1 microgram) of recombinant murine IL-18, with analysis of the liver for HBV DNA on Day 3 by Southern blot.

HSV-1 (SC-16) = assay: Lethal systemic HSV infection model; format: in vivo, mice
Protocol: Several studies evaluated the effect of murine IL-18 in a lethal systemic HSV infection model. Murine IL-18 was administered IP at −2 hours, 24 hours, and 48 hours following IP infection with HSV-1 (SC-16). IL-18 treatment at 10-ug/mouse lead to 40% survival in all studies, relative to no survival of vehicle treated animals (FIG. 5). […] In a single study, two daily doses of IL-18 at 100 ug/mouse lead to 70% survival (not shown).

[1] = tested on: GM-CSF, IFN-gamma, and TNF mRNA; assay: Cytokine mRNA induction in spleens of uninfected mice (quantitative real-time PCR); format: in vivo, Female Balb/C mice
[2] = post-treatment, IL-18 100 ng/ml

human IL-18: human IL-18, amino acid sequence SEQ ID NO:1; 157 amino acid cytokine, interferon-γ-inducing factor
IL-8 induction (Chimpanzee PBMCs; IL-18 100 ng/ml, FIG. 9(a), donor species of FIG. 9 not given): 14 fold
Neopterin induction (Chimpanzee PBMCs; IL-18 100 ng/ml, FIG. 9(b), donor species of FIG. 9 not given): 7 fold
GM-CSF induction (Chimpanzee PBMCs; IL-18 100 ng/ml, FIG. 9(c), donor species of FIG. 9 not given): 100 fold
IFN-gamma induction (Chimpanzee PBMCs; IL-18 100 ng/ml, FIG. 9(d), donor species of FIG. 9 not given): 8 fold
inducing cytokine expression in chimp PBMCs (Chimpanzee PBMCs; human IL-18 100 ng/ml, 24-96 hours): active
time of highest protein levels (IL-8, Neopterin, GM-CSF) (Chimpanzee PBMCs; [2]): 96 h
time of maximum IFN-gamma level (Chimpanzee PBMCs; [2]): 24 h

B1: murine IL-18: murine IL-18, amino acid sequence SEQ ID NO:2; interferon-γ-inducing factor cytokine (protein, listed as Mus musculus)
chain: NFGRLHCTTAVIRNINDQVLFVDKRQPVFEDMTDIDQSASEPQTRLIIYMYKDSEVRGLAVTLSVKDSKMSTLSCKNKIISFEEMDPPENIDDIQSDLIFFQKRVPGHNKMEFESSLYEGHFLACQKEDDAFKLILKKKDENGDKSVMFTLTNLHQS
induction of GM-CSF protein (TNF-α, IFN-γ, and GM-CSF; IP 10 or 100 ug): no induction
IFN levels in sera and spleens (TNF-α, IFN-γ, and GM-CSF; IP 10 or 100 ug murine IL-18, by 2.5 hours post-treatment): 2 ng/mL
induction of TNF-α protein (TNF-α, IFN-γ, and GM-CSF; IP 10 or 100 ug, called minimal induction): 100 pg/mL
reduction of liver HBV DNA at lowest dose (Hepatitis B Virus (HBV); 0.1 micrograms sc Days 0, 1, 2): some reduction
reduction of liver HBV DNA at higher doses (Hepatitis B Virus (HBV); 1, 10, 100 microgram sc Days 0, 1, 2): greater reductions
virus replication (levels of viral DNA in liver) (Hepatitis B Virus (HBV); three daily sc injections, 100, 10, 1 and 0.1 microgram): dose-dependent reduction
survival (HSV-1 (SC-16); 10-ug/mouse IP at -2, 24 and 48 hours, vehicle: no survival): 40%
time to death (HSV-1 (SC-16); all studies): delay in time to death
survival (HSV-1 (SC-16); two daily doses at 100 ug/mouse, single study, not shown): 70%
IFN γ mRNA induction over vehicle ([1]; 2.5-6 hours post injection, real-time PCR, spleen): up to 20 fold
TNF mRNA induction ([1]; quantitative real-time PCR): observed
GM-CSF mRNA induction relative to vehicle control ([1]; real-time PCR, data not shown): 6-10 fold
